# Source: patent US20260265717A1
# T1: MG64-1 Cas12k expressed with an N-terminal Twin Strep tag and an HRV3C protease site and a C-terminal 2xNLS tag
# T1 sequence: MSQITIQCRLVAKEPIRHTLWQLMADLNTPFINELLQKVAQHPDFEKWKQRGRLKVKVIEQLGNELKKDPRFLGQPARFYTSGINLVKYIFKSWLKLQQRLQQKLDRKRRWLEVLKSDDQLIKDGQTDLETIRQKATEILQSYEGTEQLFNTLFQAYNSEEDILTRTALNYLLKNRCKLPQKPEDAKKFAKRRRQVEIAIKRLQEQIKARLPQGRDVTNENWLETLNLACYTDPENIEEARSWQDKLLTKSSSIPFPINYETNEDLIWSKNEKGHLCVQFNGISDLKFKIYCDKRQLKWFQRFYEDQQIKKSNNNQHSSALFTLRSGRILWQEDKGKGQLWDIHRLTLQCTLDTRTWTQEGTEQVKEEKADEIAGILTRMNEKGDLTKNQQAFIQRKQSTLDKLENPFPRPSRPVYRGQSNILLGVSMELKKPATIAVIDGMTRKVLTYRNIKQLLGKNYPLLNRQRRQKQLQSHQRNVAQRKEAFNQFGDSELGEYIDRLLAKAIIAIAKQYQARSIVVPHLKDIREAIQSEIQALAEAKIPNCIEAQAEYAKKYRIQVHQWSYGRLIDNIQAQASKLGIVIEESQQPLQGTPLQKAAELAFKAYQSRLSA
# Molecular target: T1, MG64-1 Cas12k expressed with an N-terminal Twin Strep tag and an HRV3C protease site and a C-terminal 2xNLS tag
# Experiment: mass spectrometry of tryptic peptides from SEC-eluted Cas12k Strep pulldown complex; emPAI is a relative measure of abundance
row,emPAI,Binder
1,2.43,MG64-1 TnsC (protein) MTIQEAQAVAKQLGDIQLTSEKLQAEIQRLNRKTVVTLSHVEALHNWLEGKRQAKQSCRVVGESRTGKTIACNAYRLRHKPIQTPGKPPIVPVVYIQVTQECGAKDLFGAIIEHLKYQMTKGTVAEIRQRTFKVLQRCGVEMLIIDEADRLKPKTFAEVRDIFDKLNIAVVLVGTDRLDAVIKRDEQVYNRFRACHRFGKLAGDEFSQTVNIWERQVLKLPVASNLSSKRMLKILGQATGGYLGLLDMILRESAIRALKKGLQKIDLDTLKEVTEEYR
2,1.61,MG64-1 TniQ (protein) MESREIQPWWFLVEPLAGESISHFLGRFRRENELTVTMMGKITGLGGTITRWEKFRFIPIPTEEELTALSEVVQVEVERLWQMFPPKGVGMKHQPIRLCGACYEEERCHKIEWQLKTTQFCSQHGLTLLSECPNCGARFQFPALWVNGWCHRCFLTFGEMVEGQSNKKKYL
